Experimental data: patent US20220119553A1 (Sanofi, published 2022)

T1: recombinant human IL4 (human, UniProt P05112 25-153)
T1 sequence (looked up): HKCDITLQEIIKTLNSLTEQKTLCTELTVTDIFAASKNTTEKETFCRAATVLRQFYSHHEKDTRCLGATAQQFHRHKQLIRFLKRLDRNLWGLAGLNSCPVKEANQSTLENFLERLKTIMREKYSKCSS

T2: human CD19 (ELISA antigen) (human, UniProt P15391 20-291, limits assumed)
T2 sequence (looked up): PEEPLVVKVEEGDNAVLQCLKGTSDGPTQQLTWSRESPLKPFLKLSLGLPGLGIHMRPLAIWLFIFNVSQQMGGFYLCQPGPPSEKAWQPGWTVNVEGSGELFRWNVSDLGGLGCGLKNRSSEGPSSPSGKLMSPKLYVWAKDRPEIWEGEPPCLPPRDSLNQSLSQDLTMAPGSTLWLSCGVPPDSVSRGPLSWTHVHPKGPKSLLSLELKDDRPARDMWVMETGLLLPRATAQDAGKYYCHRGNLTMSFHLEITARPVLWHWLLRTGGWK


How the values were obtained:
[1] = target: T1, recombinant human IL4; assay: cell-based or functional assay
[2] = target: T1, recombinant human IL4; assay: SPR (BIACORE 3000), antibody captured, human IL4 as analyte
[3] = target: CD38 on human multiple myeloma cells (human, UniProt P28907 1-300); assay: cell-based or functional assay
[4] = target: T2, human CD19 (ELISA antigen); assay: ELISA on coated antigen, detection with HRP-conjugated anti-Fab secondary antibody, OD450
Description: The coated plate was blocked using 5% skim milk+2% BSA in PBS for one hour at RT, followed by washing with PBS+0.25% Tween 20 three times (Aqua Max 400, Molecular Devices). Serial dilution of antibodies (trispecific and control Abs) were prepared and added onto the ELISA plates (100 μl/well in duplicate), incubated at RT for one hour, followed by washing 5 times with PBS+0.25% Tween 20.
The reaction was terminated by adding 50 μl 1M H₂SO₄, and OD₄₅₀ was measured using SpectraMax M5 (Molecular Devices) and analyzed using SoftMax Pro6.3 software (Molecular Devices). […] EC50 was calculated using the same software.

Binder	IL4 IC50 (HEK Blue reporter assay) [1] [µg/mL]	Kd [2] [pM]	No. of ILs Bound [2]	kDa Bound [2] [kDa]	koff [2] [s⁻¹]	kon [2] [M⁻¹ s⁻¹]	EC50 (pM), antibody-mediated cell killing of RPMI8226 cells [3] [pM]	binding result [4]
Binding Protein 16 (bispecific antibody, human IgG1, kappa, lambda, Bispecific trivalent (CODV-Fab) × Fab-IgG1 Fc; two IL13 sites, one IL4 site; also called IL13 × (IL13 × IL4); (anti-IL13 × anti-IL4) × anti-IL13) heavy 1: not shown light 1: DIVLTQSPASLAVSLGQRATISCRASESVDSYGQSYMHWYQQKAGQPPKLLIYLASNLESGVPARFSGSGSRTDFTLTIDPVQAEDAATYYCQQNAEDSRTFGGGTKLEIKGQPKAAPSVTLFPPSSEELQANKATLVCLISDFYPGAVTVAWKADSSPVKAGVETTTPSKQSNNKYAASSYLSLTPEQWKSHRSYSCQVTHEGSTVEKTVAPTECS heavy 2: not shown light 2: not shown	0.013	5.88	1	17	0.00028	4.77e+07	–	–
Binding Protein 18 (bispecific antibody, human IgG1, kappa, lambda, Bispecific trivalent (CODV-Fab) × Fab-IgG1 Fc; two IL13 sites, one IL4 site; also called IL13 × (IL4 × IL13); (anti-IL4 × anti-IL13) × anti-IL13) heavy 1: not shown light 1: DIVLTQSPASLAVSLGQRATISCRASESVDSYGQSYMHWYQQKAGQPPKLLIYLASNLESGVPARFSGSGSRTDFTLTIDPVQAEDAATYYCQQNAEDSRTFGGGTKLEIKGQPKAAPSVTLFPPSSEELQANKATLVCLISDFYPGAVTVAWKADSSPVKAGVETTTPSKQSNNKYAASSYLSLTPEQWKSHRSYSCQVTHEGSTVEKTVAPTECS heavy 2: not shown light 2: not shown	0.0146	10.2	1	18	0.000359	3.52e+07	–	–
Binding Protein 5 (other) heavy 1: QVQLVQSGAEVAKPGTSVKLSCKASGYTFTDYWMQWVKQRPGQGLEWIGTIYPGDGDTGYAQKFQGKATLTADKSSKTVYMHLSSLASEDSAVYYCARGDYYGSNSLDYWGQGTSVTVSSASTKGPSVFPLAPCSRSTSESTAALGCLVKDYFPEPVTVSWNSGALTSGVHTFPAVLQSSGLYSLSSVVTVPSSSLGTKTYTCNVDHKPSNTKVDKRVESKYGPPCPPCPAPEFLGGPSVFLFPPKPKDTLMISRTPEVTCVVVDVSQEDPEVQFNWYVDGVEVHNAKTKPREEQFNSTYRVVSVLTVLHQDWLNGKEYKCKVSNKGLPSSIEKTISKAKGQPREPQVYTLPPCQEEMTKNQVSLWCLVKGFYPSDIAVEWESNGQPENNYKTTPPVLDSDGSFFLYSKLTVDKSRWQEGNVFSCSVMHEALHNHYTQKSLSLSLGK light 1: DIVMTQSHLSMSTSLGDPVSITCKASQDVSTVVAWYQQKPGQSPRRLIYSASYRYIGVPDRFTGSGAGTDFTFTISSVQAEDLAVYYCQQHYSPPYTFGGGTKLEIKRTVAAPSVFIFPPSDEQLKSGTASVVCLLNNFYPREAKVQWKVDNALQSGNSQESVTEQDSKDSTYSLSSTLTLSKADYEKHKVYACEVTHQGLSSPVTKSFNRGEC heavy 2: QVQLVQSGAEVVKPGASVKVSCKASGYTFTSYYIHWVRQAPGQGLEWIGSIYPGNVNTNYAQKFQGRATLTVDTSISTAYMELSRLRSDDTAVYYCTRSHYGLDWNFDVWGKGTTVTVSSSQVQLVESGGGVVQPGRSLRLSCAASGFTFTKAWMHWVRQAPGKQLEWVAQIKDKSNSYATYYADSVKGRFTISRDDSKNTLYLQMNSLRAEDTAVYYCRGVYYALSPFDYWGQGTLVTVSSRTASTKGPSVFPLAPCSRSTSESTAALGCLVKDYFPEPVTVSWNSGALTSGVHTFPAVLQSSGLYSLSSVVTVPSSSLGTKTYTCNVDHKPSNTKVDKRVESKYGPPCPPCPAPEFLGGPSVFLFPPKPKDTLMISRTPEVTCVVVDVSQEDPEVQFNWYVDGVEVHNAKTKPREEQFNSTYRVVSVLTVLHQDWLNGKEYKCKVSNKGLPSSIEKTISKAKGQPREPQVCTLPPSQEEMTKNQVSLSCAVKGFYPSDIAVEWESNGQPENNYKTTPPVLDSDGSFFLVSKLTVDKSRWQEGNVFSCSVMHEALHNHYTQKSLSLSLGK light 2: DIVMTQTPLSLSVTPGQPASISCKSSQSLVHNNANTYLSWYLQKPGQSPQSLIYKVSNRFSGVPDRFSGSGSGTDFTLKISRVEAEDVGVYYCGQGTQYPFTFGSGTKVEIKGQPKAAPDIQMTQSPSSLSASVGDRVTITCQASQNIYVWLNWYQQKPGKAPKLLIYKASNLHTGVPSRFSGSGSGTDFTLTISSLQPEDIATYYCQQGQTYPYTFGQGTKLEIKTKGPSRTVAAPSVFIFPPSDEQLKSGTASVVCLLNNFYPREAKVQWKVDNALQSGNSQESVTEQDSKDSTYSLSSTLTLSKADYEKHKVYACEVTHQGLSSPVTKSFNRGEC	–	–	–	–	–	–	0.379	–
Binding Protein 3 (other, Trispecific antibody of four chains, IgG4: anti-CD19 Fab arm (knob) and CODV arm anti-CD28 x anti-CD3 (hole); also called anti-CD19×CD28×CD3 IgG4 trispecific antibody; CD19 × (CD28 × CD3)) heavy 1: QVQLVQSGAEVKKPGSSVKVSCKASGYAFSSYWMNWVRQAPGQGLEWIGQIWPGDGDTNYNQKFKGRATLTADESTSTAYMELSSLRSEDTAVYYCARRETTTVGRYYYAMDYWGQGTTVTVSSASTKGPSVFPLAPCSRSTSESTAALGCLVKDYFPEPVTVSWNSGALTSGVHTFPAVLQSSGLYSLSSVVTVPSSSLGTKTYTCNVDHKPSNTKVDKRVESKYGPPCPPCPAPEFLGGPSVFLFPPKPKDTLMISRTPEVTCVVVDVSQEDPEVQFNWYVDGVEVHNAKTKPREEQFNSTYRVVSVLTVLHQDWLNGKEYKCKVSNKGLPSSIEKTISKAKGQPREPQVYTLPPCQEEMTKNQVSLWCLVKGFYPSDIAVEWESNGQPENNYKTTPPVLDSDGSFFLYSKLTVDKSRWQEGNVFSCSVMHEALHNHYTQKSLSLSLGK light 1: DLVLTQSPASLAVSPGQRATITCKASQSVDYDGDSYLNWYQQKPGQPPKLLIYDASNLVSGVPARFSGSGSGTDFTLTINPVEANDTANYYCQQSTEDPWTFGQGTKLEIKRTVAAPSVFIFPPSDEQLKSGTASVVCLLNNFYPREAKVQWKVDNALQSGNSQESVTEQDSKDSTYSLSSTLTLSKADYEKHKVYACEVTHQGLSSPVTKSFNRGEC heavy 2: QVQLVQSGAEVVKPGASVKVSCKASGYTFTSYYIHWVRQAPGQGLEWIGSIYPGNVNTNYAQKFQGRATLTVDTSISTAYMELSRLRSDDTAVYYCTRSHYGLDWNFDVWGKGTTVTVSSSQVQLVESGGGVVQPGRSLRLSCAASGFTFTKAWMHWVRQAPGKQLEWVAQIKDKSNSYATYYADSVKGRFTISRDDSKNTLYLQMNSLRAEDTAVYYCRGVYYALSPFDYWGQGTLVTVSSRTASTKGPSVFPLAPCSRSTSESTAALGCLVKDYFPEPVTVSWNSGALTSGVHTFPAVLQSSGLYSLSSVVTVPSSSLGTKTYTCNVDHKPSNTKVDKRVESKYGPPCPPCPAPEFLGGPSVFLFPPKPKDTLMISRTPEVTCVVVDVSQEDPEVQFNWYVDGVEVHNAKTKPREEQFNSTYRVVSVLTVLHQDWLNGKEYKCKVSNKGLPSSIEKTISKAKGQPREPQVCTLPPSQEEMTKNQVSLSCAVKGFYPSDIAVEWESNGQPENNYKTTPPVLDSDGSFFLVSKLTVDKSRWQEGNVFSCSVMHEALHNHYTQKSLSLSLGK light 2: DIVMTQTPLSLSVTPGQPASISCKSSQSLVHNNANTYLSWYLQKPGQSPQSLIYKVSNRFSGVPDRFSGSGSGTDFTLKISRVEAEDVGVYYCGQGTQYPFTFGSGTKVEIKGQPKAAPDIQMTQSPSSLSASVGDRVTITCQASQNIYVWLNWYQQKPGKAPKLLIYKASNLHTGVPSRFSGSGSGTDFTLTISSLQPEDIATYYCQQGQTYPYTFGQGTKLEIKTKGPSRTVAAPSVFIFPPSDEQLKSGTASVVCLLNNFYPREAKVQWKVDNALQSGNSQESVTEQDSKDSTYSLSSTLTLSKADYEKHKVYACEVTHQGLSSPVTKSFNRGEC	–	–	–	–	–	–	–	binds
Binding Protein 17 (bispecific antibody, human IgG1, kappa, lambda, Bispecific trivalent (CODV-Fab) × Fab-IgG1 Fc; two IL4 sites, one IL13 site; also called IL4 × (IL13 × IL4); (anti-IL13 × anti-IL4) × anti-IL4) heavy 1: not shown light 1: DIQMTQSPASLSVSVGDTITLTCHASQNIDVWLSWFQQKPGNIPKLLIYKASNLHTGVPSRFSGSGSGTGFTLTISSLQPEDIATYYCQQAHSYPFTFGGGTKLEIKGQPKAAPSVTLFPPSSEELQANKATLVCLISDFYPGAVTVAWKADSSPVKAGVETTTPSKQSNNKYAASSYLSLTPEQWKSHRSYSCQVTHEGSTVEKTVAPTECS heavy 2: not shown light 2: not shown	0.00862	2.4	2	35	0.00076	3.16e+08	–	–
Binding Protein 19 (bispecific antibody, human IgG1, kappa, lambda, Bispecific trivalent (CODV-Fab) × Fab-IgG1 Fc; two IL4 sites, one IL13 site; also called IL4 × (IL4 × IL13); (anti-IL4 × anti-IL13) × anti-IL4) heavy 1: not shown light 1: DIQMTQSPASLSVSVGDTITLTCHASQNIDVWLSWFQQKPGNIPKLLIYKASNLHTGVPSRFSGSGSGTGFTLTISSLQPEDIATYYCQQAHSYPFTFGGGTKLEIKGQPKAAPSVTLFPPSSEELQANKATLVCLISDFYPGAVTVAWKADSSPVKAGVETTTPSKQSNNKYAASSYLSLTPEQWKSHRSYSCQVTHEGSTVEKTVAPTECS heavy 2: not shown light 2: not shown	0.00573	4.65	2	34	0.000385	8.27e+07	–	–
